Laboratory results taken from patent US20200024330A1.

Key:
Test in all cases: cell-based or functional assay
[1] = target: HIV-1 92UG037 envelope glycoprotein (Env) (HIV-1)
[2] = target: HIV-1 Env of pseudovirus SC422661.8 (Acute), clade B (HIV-1)
[3] = target: HIV-1 IAVI-C3 envelope protein (Env) on pseudovirus (HIV-1)
[4] = target: HIV-1 MGRM-A-006 envelope glycoprotein (Env) (HIV-1)
[5] = target: HIV-1 MGRM-C-024 Env (HIV-1)
[6] = target: HIV-1 Env of isolate MGRM-D-028 (clade D) (HIV-1)
[7] = target: HIV-1 98IN022 envelope glycoprotein (Env) on pseudovirus (HIV-1)
[8] = target: HIV-1 Env of isolate MGRM-G-025 (clade G pseudovirus) (HIV-1)
[9] = target: HIV-1 Env of isolate MGRM-D-003 (clade D) (HIV-1)
[10] = target: HIV-1 92UG031 envelope glycoprotein (Env) (HIV-1)
[11] = target: HIV-1 MGRM-C-025 Env (HIV-1)
[12] = target: HIV-1 Env of isolate MGRM-AE-002 (HIV-1)
[13] = target: HIV-1 MGRM-A-011 envelope glycoprotein (Env) (HIV-1)
[14] = target: HIV-1 92RW026 envelope glycoprotein (Env) (HIV-1)
[15] = target: HIV-1 92RW020 envelope protein (Env) on pseudovirus (HIV-1)
[16] = target: HIV-1 Env of pseudovirus PVO.4 (Acute), clade B (HIV-1)
[17] = target: HIV-1 Env of isolate MGRM-G-011 (subtype G) (HIV-1)
[18] = target: HIV-1 Env of isolate 92WR026 (HIV-1)
[19] = target: HIV-1 Env of isolate 93WR029 (HIV-1)
[20] = target: HIV-1 Env of isolate 92UG031 (HIV-1)
[21] = target: HIV-1 Env of isolate MGRM-Chronic-B-008 (HIV-1)
[22] = target: HIV-1 Env of isolate MGRM-F1-014 (HIV-1)
[23] = target: HIV-1 Env of isolate MGRM-F1-013 (HIV-1)
[24] = target: HIV-1 Env of isolate MGRM-D-022 (HIV-1)
[25] = target: HIV-1 Env of isolate PVO.4 (HIV-1)
[26] = target: HIV-1 Env of isolate MGRM-D-018 (HIV-1)
[27] = target: HIV-1 Env of isolate 93MW959 (HIV-1)
[28] = target: HIV-1 Env of isolate MGRM-F1-021 (HIV-1)
[29] = target: HIV-1 Env of isolate MGRM-C-025 (pseudovirus) (HIV-1 isolate MGRM-C-025, subtype C)
[30] = target: HIV-1 Env of isolate MG RM-D-016 (subtype D) (HIV-1)
[31] = target: HIV-1 Env of isolate MG RM-D-008 (subtype D) (HIV-1)
[32] = target: HIV-1 MGRM-Chronic-B-023 Env (pseudovirus) (HIV-1)
[33] = target: HIV-1 Env of isolate MGRM-C-002 (pseudovirus) (HIV-1 isolate MGRM-C-002, subtype C)
[34] = target: HIV-1 Env of isolate MG RM-AG-011 (HIV-1)
[35] = target: HIV-1 Env of isolate MG RM-D-011 (subtype D) (HIV-1)
[36] = target: HIV-1 Env of isolate MG RM-D-014 (subtype D) (HIV-1)
[37] = target: HIV-1 Env of isolate MGRM-C-001 (pseudovirus) (HIV-1 isolate MGRM-C-001, subtype C)
[38] = target: HIV-1 JR-CSF Env N197A (HIV-1 (isolate JR-CSF)) (UniProt P20871)
[39] = target: HIV-1 JR-CSF Env Y177A (HIV-1 (isolate JR-CSF)) (UniProt P20871)
[40] = target: HIV-1 MGRM-C-026 envelope glycoprotein (Env) on pseudovirus (HIV-1)

Row | Substance | IC50 (µg/ml), pseudovirus neutralization [1] [µg/mL] | IC50 (µg/ml), pseudovirus neutralization [2] [µg/mL] | neutralization IC50 [3] [µg/mL] | IC50 (µg/ml), pseudovirus neutralization [4] [µg/mL] | IC50 [5] [µg/mL] | IC50 (µg/ml), pseudovirus neutralization [6] [µg/mL] | IC50 (µg/ml), pseudovirus neutralization [7] [µg/mL] | IC50 (µg/ml), pseudovirus neutralization [8] [µg/mL] | IC50 (µg/ml), pseudovirus neutralization [9] [µg/mL] | IC50 (µg/ml), pseudovirus neutralization [10] [µg/mL] | IC50 [11] [µg/mL] | IC50 (µg/ml), pseudovirus neutralization [12] [µg/mL] | IC50 (µg/ml), pseudovirus neutralization [13] [µg/mL] | IC50 (µg/ml), pseudovirus neutralization [14] [µg/mL] | neutralization IC50 [15] [µg/mL] | IC50 (µg/ml), pseudovirus neutralization [16] [µg/mL] | neutralization IC50 [17] [µg/mL] | further results
1 | 4E10 (antibody) | 8.84 | 6.35 | 5 | 9.87 | 22.6 | 1.28 | 0.53 | 1.7 | 2.49 | 4.94 | 5.58 | 0.55 | 2.88 | 12.9 | 3.38 | 18.3 | – | –
2 | PGT-144 (4970_K22) (antibody) | – | – | – | – | – | – | – | – | – | – | – | – | – | – | – | – | 1.58 | –
3 | PGT-143 (4980_N08) (antibody) | – | – | – | – | – | – | – | – | – | – | – | – | – | – | – | – | 0.074 | –
4 | 2F5 (antibody) | 3.24 | > 50 | > 50 | 15.7 | > 50 | > 50 | > 50 | > 50 | > 50 | 3.81 | > 50 | 0.31 | > 50 | 8.63 | 3.37 | > 50 | – | –
5 | 2G12 (antibody) | 45.2 | 0.84 | > 50 | 13.8 | > 50 | > 50 | > 50 | 31.9 | > 50 | > 50 | > 50 | > 50 | > 50 | 17.2 | 0.56 | 0.8 | – | –
6 | PGT-122 (antibody) | – | – | – | – | – | – | – | – | – | – | – | – | – | – | – | – | – | IC50 (µg/mL), pseudovirus neutralization [18]: 0.036 µg/mL; IC50 (µg/mL), pseudovirus neutralization [19]: > 50 µg/mL; IC50 (µg/mL), pseudovirus neutralization [12]: > 50 µg/mL; IC50 (µg/mL), pseudovirus neutralization [20]: > 50 µg/mL
7 | VRC01 (antibody) | – | – | – | – | – | – | – | – | – | – | – | – | – | – | – | – | 0.065 | IC50 [21]: 0.155 µg/mL; IC50, pseudovirus neutralization [22]: 0.056 µg/mL; IC50, pseudovirus neutralization [23]: 0.17 µg/mL; IC50, pseudovirus neutralization [24]: > 50 µg/mL; neutralization IC50 [25]: 0.218 µg/mL; IC50, pseudovirus neutralization [26]: > 50 µg/mL; neutralization IC50 [27]: 0.053 µg/mL; IC50, pseudovirus neutralization [28]: 0.039 µg/mL
8 | PGT-141 (4964_G22; 4993_K13) (antibody) | – | – | – | – | – | – | – | – | – | – | – | – | – | – | – | – | 0.086 | –
9 | 4838_L06 (PGT-121) (antibody) | – | – | – | – | – | – | – | – | – | – | – | – | – | – | – | – | – | IC50 (µg/mL) neutralization [29]: 46.8 µg/mL; IC50 (µg/mL), pseudovirus neutralization [30]: > 50 µg/mL; IC50 (µg/mL), pseudovirus neutralization [31]: > 50 µg/mL; IC50, pseudovirus neutralization [32]: 0.005 µg/mL; IC50 [23]: 0.083 µg/mL; IC50 (µg/mL) neutralization [33]: 0.019 µg/mL; neutralization IC50 [34]: > 50 µg/mL; IC50 (µg/mL), pseudovirus neutralization [35]: 0.018 µg/mL; IC50 [28]: 0.099 µg/mL; IC50 (µg/mL), pseudovirus neutralization [36]: 0.009 µg/mL; IC50 (µg/mL) neutralization [37]: 17.5 µg/mL
10 | 5145_B14 (PGT-127) (antibody) | – | – | – | – | – | – | – | – | – | – | – | – | – | – | – | – | – | IC50 (µg/mL) neutralization [29]: > 50 µg/mL; IC50 (µg/mL), pseudovirus neutralization [30]: > 50 µg/mL; IC50 (µg/mL), pseudovirus neutralization [31]: > 50 µg/mL; IC50, pseudovirus neutralization [32]: > 50 µg/mL; IC50 [22]: > 50 µg/mL; IC50 [23]: > 50 µg/mL; IC50 (µg/mL) neutralization [33]: 0.057 µg/mL; neutralization IC50 [34]: > 50 µg/mL; Fold IC50 increase relative to wild-type [38]: 0.6 fold; IC50 (µg/mL), pseudovirus neutralization [35]: 0.015 µg/mL; IC50 [28]: > 50 µg/mL; IC50 (µg/mL), pseudovirus neutralization [36]: 0.393 µg/mL; IC50 (µg/mL) neutralization [37]: > 50 µg/mL; Fold IC50 increase relative to wild-type [39]: 2.9 fold
11 | b12 (antibody) | > 50 | 6.11 | 5 | 13.6 | > 50 | 0.78 | 0.42 | > 50 | > 50 | > 50 | > 50 | 17.1 | 4.01 | > 50 | > 50 | > 50 | – | –
12 | 1496_C09 (PG9) (TCN-109) (antibody) | – | 0.79 | 12.9 | – | 0.22 | 4.39 | 0.006 | – | – | 3.08 | 0.17 | 0.04 | – | 0.27 | 0.0637 | 4.01 | 0.335 | IC50 (µg/mL), pseudovirus neutralization [23]: 1.25 µg/mL; IC50 (ug/ml), neutralizing activity [40]: 0.113 µg/mL; IC50 neutralization [40]: 0.113 µg/mL; IC50 (µg/mL), pseudovirus neutralization [12]: 0.04 µg/mL; IC50 [20]: 3.6 µg/mL
13 | PGT-142 (4995_E20) (antibody) | – | – | – | – | – | – | – | – | – | – | – | – | – | – | – | – | 0.046 | –
14 | PGV04 (antibody) | – | – | – | – | – | – | – | – | – | – | – | – | – | – | – | – | 0.78 | IC50 (µg/mL), pseudovirus neutralization [22]: 0.02 µg/mL; IC50 (µg/mL), pseudovirus neutralization [23]: 0.084 µg/mL; IC50 (µg/mL), pseudovirus neutralization [24]: > 50 µg/mL; IC50 (µg/mL), pseudovirus neutralization [26]: 17.5 µg/mL; IC50 (µg/mL), pseudovirus neutralization [12]: 0.569 µg/mL; IC50 [20]: 4.46 µg/mL
15 | PGT-121 (antibody) | – | – | – | – | – | – | – | – | – | – | – | – | – | – | – | – | – | IC50 (µg/mL), pseudovirus neutralization [18]: 0.014 µg/mL; IC50 (µg/mL), pseudovirus neutralization [19]: > 50 µg/mL; IC50 (µg/mL), pseudovirus neutralization [12]: > 50 µg/mL; IC50 (µg/mL), pseudovirus neutralization [20]: > 50 µg/mL
16 | 1443_C16 (PG16) (TCN-116) (antibody) | 0.01 | 1.13 | 14.8 | > 50 | 0.04 | > 50 | 0.003 | > 50 | 0.01 | 0.43 | 0.04 | 0.01 | 0.24 | 0.03 | 0.004 | 5.43 | – | IC50, pseudovirus neutralization (TZM-bl) [25]: 12.3 µg/mL
17 | 4877_D15 (PGT-122) (antibody) | – | – | – | – | – | – | – | – | – | – | – | – | – | – | – | – | – | IC50 (µg/mL) neutralization [29]: 8.69 µg/mL; IC50 (µg/mL), pseudovirus neutralization [30]: > 50 µg/mL; IC50 (µg/mL), pseudovirus neutralization [31]: > 50 µg/mL; IC50, pseudovirus neutralization [32]: 0.01 µg/mL; IC50 [22]: 0.195 µg/mL; IC50 [23]: 0.152 µg/mL; IC50 (µg/mL) neutralization [33]: 0.022 µg/mL; IC50 (ug/ml), neutralizing activity [40]: 0.0089 µg/mL; neutralization IC50 [34]: > 50 µg/mL; IC50 (µg/mL), pseudovirus neutralization [35]: 0.019 µg/mL; IC50 [28]: 2.3 µg/mL; IC50 (µg/mL), pseudovirus neutralization [36]: 0.012 µg/mL; IC50 (µg/mL) neutralization [37]: 19.1 µg/mL
18 | 1495_C14 (PGC14) (antibody) | > 50 | > 50 | > 50 | > 50 | > 50 | > 50 | 9 | > 50 | > 50 | > 50 | > 50 | > 50 | > 50 | > 50 | 28.6 | > 50 | – | –
